Target: T1, HLA-A*02:01 (human)
T1 construct: MHC class I monomer made peptide-receptive by UV cleavage of a UV-sensitive ligand; also called peptide-receptive MHC molecules
Experiment: UV-ligand exchange ELISA (anti-β2m), peptide exchange yield grade
From the text: Candidate peptides for T cell based therapies according to the present invention were further tested for their MHC binding capacity (affinity). The individual peptide-MHC complexes were produced by UV-ligand exchange, where a UV-sensitive peptide is cleaved upon UV-irradiation, and exchanged with the peptide of interest as analyzed. Only peptide candidates that can effectively bind and stabilize the peptide-receptive MHC molecules prevent dissociation of the MHC complexes. To determine the yield of the exchange reaction, an ELISA was performed based on the detection of the light chain (β2m) of stabilized MHC complexes. The assay was performed as generally described in Rodenko et al. (Rodenko et al., 2006).
96 well MAXISorp plates (NUNC) were coated over night with 2ug/ml streptavidin in PBS at room temperature, washed 4× and blocked for1h at 37° C. in 2% BSA containing blocking buffer. Refolded HLA-A*02:01/MLA-001 monomers served as standards, covering the range of 15-500 ng/ml. Peptide-MHC monomers of the UV-exchange reaction were diluted 100 fold in blocking buffer. Samples were incubated for 1h at 37° C., washed four times, incubated with 2 ug/ml HRP conjugated anti-β2m for 1h at 37° C., washed again and detected with TMB solution that is stopped with […]. Absorption was measured at 450 nm. Candidate peptides that show a high exchange yield (preferably higher than 50%, most preferred higher than 75 %) are generally preferred for a generation and production of antibodies or fragments thereof, and/or T cell receptors or fragments thereof, as they show sufficient avidity to the MHC molecules and prevent dissociation of the MHC complexes.

Row | peptide exchange yield [%] | Binder
1 | 50 to 75 | KSMDIVLTV [peptide KSMDIVLTV (SEQ ID NO: 94)]
2 | 20 to 50 | SLAADQLLKL [peptide SLAADQLLKL (SEQ ID NO: 79)]
3 | ≥ 75 | SLQELRLLL [peptide SLQELRLLL (SEQ ID NO: 93)]
4 | 50 to 75 | YLFDIAVSM [peptide YLFDIAVSM (SEQ ID NO: 73)]
5 | ≥ 75 | KLDIKVETV [peptide KLDIKVETV (SEQ ID NO: 88)]
6 | 20 to 50 | ALDPELLLL [peptide ALDPELLLL (SEQ ID NO: 78)]
7 | 50 to 75 | ALLSQQTHL [peptide ALLSQQTHL (SEQ ID NO: 81)]
8 | 50 to 75 | SILQFVHMV [peptide SILQFVHMV (SEQ ID NO: 68)]
9 | 50 to 75 | MISELEVRL [peptide MISELEVRL (SEQ ID NO: 70)]
10 | 20 to 50 | ALWWGVVTV (also called ALWWGWTV) [peptide ALWWGVVTV (SEQ ID NO: 97)]
11 | 20 to 50 | SLLKRDFGA [peptide SLLKRDFGA (SEQ ID NO: 77)]
12 | 50 to 75 | GLLKPGLNVVL (also called …) [peptide GLLKPGLNVVL (SEQ ID NO: 90)]
13 | 20 to 50 | ILHDINSDGVL [peptide ILHDINSDGVL (SEQ ID NO: 85)]
14 | 50 to 75 | TVDVATPSV [peptide TVDVATPSV (SEQ ID NO: 91)]
15 | 20 to 50 | GMLNEAEGKAIKL [peptide GMLNEAEGKAIKL (SEQ ID NO: 69)]
16 | 20 to 50 | KLFSILSTV [peptide KLFSILSTV (SEQ ID NO: 63)]
17 | 20 to 50 | QLYEEPDTKL [peptide QLYEEPDTKL (SEQ ID NO: 82)]
18 | ≥ 75 | AILDAHIEV [peptide AILDAHIEV (SEQ ID NO: 95)]
19 | 50 to 75 | KLLEVDLDTV [peptide KLLEVDLDTV (SEQ ID NO: 99)]
20 | 20 to 50 | KTLGKLWRL [peptide KTLGKLWRL (SEQ ID NO: 64)]
21 | 20 to 50 | GLDDGPDFL [peptide GLDDGPDFL (SEQ ID NO: 66)]
22 | 20 to 50 | ILDDHLSRV [peptide ILDDHLSRV (SEQ ID NO: 9)]
23 | 20 to 50 | KLYSRLVYV [peptide KLYSRLVYV (SEQ ID NO: 96)]
24 | 50 to 75 | SLNDLEKDVMLL [peptide SLNDLEKDVMLL (SEQ ID NO: 67)]
25 | 50 to 75 | YLLDYPNNLL [peptide YLLDYPNNLL (SEQ ID NO: 72)]
26 | 20 to 50 | FLFGYPKRL [peptide FLFGYPKRL (SEQ ID NO: 103)]

Row | peptide exchange yield [%] | Binder
27 | 50 to 75 | RLWTEIPTAI [peptide RLWTEIPTAI (SEQ ID NO: 71)]
28 | 50 to 75 | SMVEDITGLRL [peptide SMVEDITGLRL (SEQ ID NO: 84)]
29 | 20 to 50 | YLTRHLAVL [peptide YLTRHLAVL (SEQ ID NO: 7)]
30 | 50 to 75 | SLIEYEFRV [peptide SLIEYEFRV (SEQ ID NO: 89)]
31 | 20 to 50 | EMIENIQSV [peptide EMIENIQSV (SEQ ID NO: 75)]
32 | 50 to 75 | LLFDAPDLRL [peptide LLFDAPDLRL (SEQ ID NO: 87)]
33 | 50 to 75 | LTIEDGIFEV [peptide LTIEDGIFEV (SEQ ID NO: 83)]
34 | 20 to 50 | AMADKMDMSL [peptide AMADKMDMSL (SEQ ID NO: 58)]
35 | 50 to 75 | KILVSLIEV [peptide KILVSLIEV (SEQ ID NO: 102)]
36 | 20 to 50 | VLDEDEPRFL [peptide VLDEDEPRFL (SEQ ID NO: 60)]
37 | 50 to 75 | SLDDFLATA [peptide SLDDFLATA (SEQ ID NO: 100)]
38 | 50 to 75 | KLLKLFQGV [peptide KLLKLFQGV (SEQ ID NO: 61)]
39 | 50 to 75 | FLAELPGSLSL [peptide FLAELPGSLSL (SEQ ID NO: 6)]
40 | 20 to 50 | YLAPENGYL [peptide YLAPENGYL (SEQ ID NO: 62)]
41 | 50 to 75 | LLTDNVVKL [peptide LLTDNWKL (SEQ ID NO: 59)]
42 | 50 to 75 | NLLEKENYL [peptide NLLEKENYL (SEQ ID NO: 57)]
43 | 20 to 50 | KVFPGKISV [peptide KVFPGKISV (SEQ ID NO: 86)]
44 | 20 to 50 | VLFTDEGVPKFL [peptide VLFTDEGVPKFL (SEQ ID NO: 56)]
45 | 50 to 75 | ALMLQGVDLL [peptide ALMLQGVDLL (SEQ ID NO: 8)]
46 | 50 to 75 | GLSEGHTFQV [peptide GLSEGHTFQV (SEQ ID NO: 101)]
47 | 50 to 75 | WIDDTSAFV [peptide WIDDTSAFV (SEQ ID NO: 92)]
48 | 50 to 75 | YLMGFLHAV [peptide YLMGFLHAV (SEQ ID NO: 74)]
49 | 20 to 50 | AMNGKSFSV [peptide AMNGKSFSV (SEQ ID NO: 98)]
50 | 50 to 75 | YLIGEKQHYL [peptide YLIGEKQHYL (SEQ ID NO: 76)]
51 | 20 to 50 | QVDEVVDIMRV (also called QVDEVVDIMRV) [peptide … (SEQ ID NO: 80)]

— US20230212244A1 (IMMATICS BIOTECHNOLOGIES, published 2023)
